For experiment [1], the target named is BA.2スパイクRBD (SARS-CoV-2 Omicron BA.2).
Experiment [2] deals with BA.5スパイクRBD (SARS-CoV-2 Omicron BA.5).

B1: MO2 (antibody, V domains shown)
VH: EVQLVESGGGLVKPGGSLSLSCVASGFTFSDYRMSWIRQAPGKGLEWVSYISSSSGYKDYADSVKGRFTISRDNAKNSLSLQMNSLRVEDTAVYYCARDVGVVTATPGYWGQGVPVSVSS
VL: DIVMTQSPATLSVSPGERATLSCRASQSVGSNLAWYQQKPGQAPRLLIYDTSTRATGVPARFSGSGSGTDFTLTISSLQSEDFAVYLCHQYDQWPPAFGPGTRVDIK
In general, Kd refers to a measure of binding affinity in units of concentration. Read a low Kd as a tighter complex. The molecule B1 showed a Kd in experiment [1] of 2 nM.

B2: MO1 (antibody, V domains shown)
VH: EVQLVESGGGMVQPGRSLRLSCAASGFTFDDYAMHWVRQIPGKGLEWVSGISWNSGDIGYADSVKGRFTISRDNAKNSLHLQMNSLRAEDTALYYCAKDKTYDSPGYFLNSFDYWGQGTLVTVSS
VL: DIQMTQSPSSLSASVGDRVTITCRASQGISSYLVWYQQKPGKAPKFLIYAASTLQSGVPSRFSGSGSGTDFTLTISSLQPEDFATYYCQQLYSYPITFGQGTRLEIK
In the case of B2, the values for the Kd in experiment [1] and in experiment [2] were 3.3 nM and 11 nM, respectively.

The record behind these values is patent JP2024051908A.
